We go through 2 molecules from PMC6889415, “Global redox proteome and phosphoproteome analysis reveals redox switch in Akt” (Nature Communications, 2019).

Data set [1] deals with the molecule itself. As to the kind of experiment: non-reducing SDS-PAGE with immunoblot; adipocytes treated with BCNU or BCNU/AF for 2 or 24 h; washed and scraped in PBS with 100 mM NEM, 1% SDS; non-reducing SDS-PAGE, immunoblot; dimer/monomer ratio measured. (Immunoblotting shows a protein as a band on a membrane.)
Data set [2] deals with T1, peroxiredoxin 2 (mouse (endogenous in 3T3-L1 adipocytes)), Q61171.
T1 chain: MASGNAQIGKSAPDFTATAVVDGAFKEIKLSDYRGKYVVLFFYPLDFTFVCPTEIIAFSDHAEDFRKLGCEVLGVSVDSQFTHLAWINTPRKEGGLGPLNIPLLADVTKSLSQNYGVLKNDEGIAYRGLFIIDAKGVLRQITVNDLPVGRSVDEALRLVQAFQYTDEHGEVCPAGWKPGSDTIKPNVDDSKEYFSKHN
The description is as above. The settings on record: remark: other sources report otherwise.

B1: peroxiredoxin 3 (natural protein, mouse (endogenous in 3T3-L1 adipocytes), UniProt P20108 63-257, looked up)
chain: TPAVTQHAPYFKGTAVVNGEFKELSLDDFKGKYLVLFFYPLDFTFVCPTEIVAFSDKANEFHDVNCEVVAVSVDSHFSHLAWINTPRKNGGLGHMNITLLSDITKQISRDYGVLLESAGIALRGLFIIDPNGVVKHLSVNDLPVGRSVEETLRLVKAFQFVETHGEVCPANWTPESPTIKPSPTASKEYFEKVHQ
notes: peroxiredoxin 3 (Prdx3), mitochondrial, endogenous in 3T3-L1 adipocytes, detected with anti-PRDX3; The dimer seen on the non-reducing gel is held by a disulfide bond formed on oxidation; also called Prdx3; PRDX3; source: endogenous, 3T3-L1 adipocyte lysate
For orientation: stoichiometry N means a count of units in the complex or per binding partner. Turning to B1, in data set [1], the “stoichiometry N” value was determined as 2.

B2: peroxiredoxin 2, Q61171 1-198 (natural protein)
chain: T1 chain
Turning to B2, the stoichiometry N in data set [2] amounted to 2.
